The results in this text go back to publication PMC12000442 (Nature Communications, 2025).

The assay deals with T1, NAA10^R4S-3xFLAG (human, UniProt P41227 1-235, R4S).
T1 sequence: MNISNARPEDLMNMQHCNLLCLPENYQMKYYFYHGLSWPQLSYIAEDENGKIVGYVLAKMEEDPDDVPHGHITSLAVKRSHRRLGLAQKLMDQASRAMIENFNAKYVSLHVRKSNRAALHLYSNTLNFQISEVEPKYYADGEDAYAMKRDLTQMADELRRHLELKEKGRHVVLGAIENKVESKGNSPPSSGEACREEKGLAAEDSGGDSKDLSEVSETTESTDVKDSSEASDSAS
Kind of assay: co-IP.

B1: NAA15 (natural protein)
chain: MPAVSLPPKENALFKRILRCYEHKQYRNGLKFCKQILSNPKFAEHGETLAMKGLTLNCLGKKEEAYELVRRGLRNDLKSHVCWHVYGLLQRSDKKYDEAIKCYRNALKWDKDNLQILRDLSLLQIQMRDLEGYRETRYQLLQLRPAQRASWIGYAIAYHLLEDYEMAAKILEEFRKTQQTSPDKVDYEYSELLLYQNQVLREAGLYREALEHLCTYEKQICDKLAVEETKGELLLQLCRLEDAADVYRGLQERNPENWAYYKGLEKALKPANMLERLKIYEEAWTKYPRGLVPRRLPLNFLSGEKFKECLDKFLRMNFSKGCPPVFNTLRSLYKDKEKVAIIEELVVGYETSLKSCRLFNPNDDGKEEPPTTLLWVQYYLAQHYDKIGQPSIALEYINTAIESTPTLIELFLVKAKIYKHAGNIKEAARWMDEAQALDTADRFINSKCAKYMLKANLIKEAEEMCSKFTREGTSAVENLNEMQCMWFQTECAQAYKAMNKFGEALKKCHEIERHFIEITDDQFDFHTYCMRKITLRSYVDLLKLEDVLRQHPFYFKAARIAIEIYLKLHDNPLTDENKEHEADTANMSDKELKKLRNKQRRAQKKAQIEEEKKNAEKEKQQRNQKKKKDDDDEEIGGPKEELIPEKLAKVETPLEEAIKFLTPLKNLVKNKIETHLFAFEIYFRKEKFLLMLQSVKRAFAIDSSHPWLHECMIRLFNTAVCESKDLSDTVRTVLKQEMNRLFGATNPKNFNETFLKRNSDSLPHRLSAAKMVYYLDPSSQKRAIELATTLDESLTNRNLQTCMEVLEALYDGSLGDCKEAAEIYRANCHKLFPYALAFMPPGYEEDMKITVNGDSSAEAEELANEI
B1: the “binding capacity relative to WT” value is 0.5 relative to WT (WT = 1.0).
